Reference: US20090099029

Biological target: Bovine, dephosphorylated, Myelin Basic Protein (MBP) (UniProt P02687)
Sequence (P02687 whole entry): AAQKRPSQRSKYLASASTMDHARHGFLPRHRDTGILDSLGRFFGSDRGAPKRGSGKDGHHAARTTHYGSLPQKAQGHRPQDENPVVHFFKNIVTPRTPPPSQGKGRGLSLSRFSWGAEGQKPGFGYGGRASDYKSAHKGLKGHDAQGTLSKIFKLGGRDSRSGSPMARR

STK25(YSK1), sequence (chain, as listed by the source): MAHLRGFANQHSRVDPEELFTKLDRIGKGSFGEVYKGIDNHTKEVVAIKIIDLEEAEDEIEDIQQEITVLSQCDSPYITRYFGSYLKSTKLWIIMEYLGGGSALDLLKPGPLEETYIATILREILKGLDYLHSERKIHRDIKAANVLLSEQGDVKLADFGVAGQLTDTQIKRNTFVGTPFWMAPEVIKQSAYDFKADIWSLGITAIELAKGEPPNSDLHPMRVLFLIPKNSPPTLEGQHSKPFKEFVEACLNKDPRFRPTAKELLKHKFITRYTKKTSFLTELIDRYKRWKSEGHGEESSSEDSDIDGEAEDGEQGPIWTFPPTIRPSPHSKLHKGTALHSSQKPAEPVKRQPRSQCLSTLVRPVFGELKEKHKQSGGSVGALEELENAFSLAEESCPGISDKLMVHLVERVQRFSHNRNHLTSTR
PIM2, sequence (chain, as listed by the source): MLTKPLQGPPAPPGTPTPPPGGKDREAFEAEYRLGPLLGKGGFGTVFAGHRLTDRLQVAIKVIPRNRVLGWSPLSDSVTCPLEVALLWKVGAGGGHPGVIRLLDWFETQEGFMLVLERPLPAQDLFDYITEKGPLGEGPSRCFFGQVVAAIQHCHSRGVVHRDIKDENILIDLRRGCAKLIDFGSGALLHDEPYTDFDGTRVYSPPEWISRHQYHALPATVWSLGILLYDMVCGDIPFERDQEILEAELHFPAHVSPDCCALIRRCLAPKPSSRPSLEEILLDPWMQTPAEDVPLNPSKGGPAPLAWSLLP
CLK4, sequence (chain, as listed by the source): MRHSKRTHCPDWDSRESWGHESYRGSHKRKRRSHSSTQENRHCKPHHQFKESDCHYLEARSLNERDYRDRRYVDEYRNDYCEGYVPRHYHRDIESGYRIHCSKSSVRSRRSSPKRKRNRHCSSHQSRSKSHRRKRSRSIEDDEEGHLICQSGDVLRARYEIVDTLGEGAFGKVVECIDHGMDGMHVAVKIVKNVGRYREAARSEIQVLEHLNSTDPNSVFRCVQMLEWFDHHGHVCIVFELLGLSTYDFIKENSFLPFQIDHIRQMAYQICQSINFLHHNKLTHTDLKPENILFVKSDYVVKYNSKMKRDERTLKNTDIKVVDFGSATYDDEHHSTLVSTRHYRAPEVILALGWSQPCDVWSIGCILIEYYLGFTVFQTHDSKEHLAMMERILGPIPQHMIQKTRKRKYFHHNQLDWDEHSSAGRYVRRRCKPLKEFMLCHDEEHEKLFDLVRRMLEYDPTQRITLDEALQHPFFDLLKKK
WEE1, sequence (chain, as listed by the source): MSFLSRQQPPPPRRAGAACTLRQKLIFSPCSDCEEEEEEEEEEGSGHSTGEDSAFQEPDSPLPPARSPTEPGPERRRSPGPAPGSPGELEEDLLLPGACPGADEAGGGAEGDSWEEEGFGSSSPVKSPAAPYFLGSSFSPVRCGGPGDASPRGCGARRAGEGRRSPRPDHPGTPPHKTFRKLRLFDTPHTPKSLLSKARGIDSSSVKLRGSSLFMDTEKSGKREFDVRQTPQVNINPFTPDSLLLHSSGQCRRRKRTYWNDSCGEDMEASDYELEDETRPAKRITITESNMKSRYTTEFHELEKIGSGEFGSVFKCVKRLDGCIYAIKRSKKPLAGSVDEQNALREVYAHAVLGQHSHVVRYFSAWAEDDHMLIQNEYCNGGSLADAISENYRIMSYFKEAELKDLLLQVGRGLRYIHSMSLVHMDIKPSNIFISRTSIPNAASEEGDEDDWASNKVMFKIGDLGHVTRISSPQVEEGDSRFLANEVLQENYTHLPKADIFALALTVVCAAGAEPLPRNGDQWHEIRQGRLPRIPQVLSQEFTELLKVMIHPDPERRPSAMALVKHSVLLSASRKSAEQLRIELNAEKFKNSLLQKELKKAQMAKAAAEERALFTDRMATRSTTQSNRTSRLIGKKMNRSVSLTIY
CLK1, sequence (chain, as listed by the source): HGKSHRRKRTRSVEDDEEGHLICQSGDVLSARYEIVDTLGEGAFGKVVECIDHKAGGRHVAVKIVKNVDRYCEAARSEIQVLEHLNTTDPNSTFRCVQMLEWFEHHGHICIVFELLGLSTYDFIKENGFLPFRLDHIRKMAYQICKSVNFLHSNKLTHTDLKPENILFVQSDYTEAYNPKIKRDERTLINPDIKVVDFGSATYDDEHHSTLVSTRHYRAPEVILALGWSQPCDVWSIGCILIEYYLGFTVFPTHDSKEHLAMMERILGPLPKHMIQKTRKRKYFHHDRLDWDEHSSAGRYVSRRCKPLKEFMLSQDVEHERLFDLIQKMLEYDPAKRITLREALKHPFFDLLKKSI
NTRK2, sequence (chain, as listed by the source): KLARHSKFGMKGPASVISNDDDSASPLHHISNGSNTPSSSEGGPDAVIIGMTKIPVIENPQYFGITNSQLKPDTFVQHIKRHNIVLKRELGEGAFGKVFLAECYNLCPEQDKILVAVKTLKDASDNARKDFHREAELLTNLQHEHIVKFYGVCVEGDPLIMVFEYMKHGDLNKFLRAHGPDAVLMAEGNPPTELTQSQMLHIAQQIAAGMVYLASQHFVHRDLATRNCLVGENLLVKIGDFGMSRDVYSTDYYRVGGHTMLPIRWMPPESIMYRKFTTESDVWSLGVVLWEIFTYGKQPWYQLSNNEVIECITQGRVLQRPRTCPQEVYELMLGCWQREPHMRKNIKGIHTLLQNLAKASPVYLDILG
BLK, sequence (chain, as listed by the source): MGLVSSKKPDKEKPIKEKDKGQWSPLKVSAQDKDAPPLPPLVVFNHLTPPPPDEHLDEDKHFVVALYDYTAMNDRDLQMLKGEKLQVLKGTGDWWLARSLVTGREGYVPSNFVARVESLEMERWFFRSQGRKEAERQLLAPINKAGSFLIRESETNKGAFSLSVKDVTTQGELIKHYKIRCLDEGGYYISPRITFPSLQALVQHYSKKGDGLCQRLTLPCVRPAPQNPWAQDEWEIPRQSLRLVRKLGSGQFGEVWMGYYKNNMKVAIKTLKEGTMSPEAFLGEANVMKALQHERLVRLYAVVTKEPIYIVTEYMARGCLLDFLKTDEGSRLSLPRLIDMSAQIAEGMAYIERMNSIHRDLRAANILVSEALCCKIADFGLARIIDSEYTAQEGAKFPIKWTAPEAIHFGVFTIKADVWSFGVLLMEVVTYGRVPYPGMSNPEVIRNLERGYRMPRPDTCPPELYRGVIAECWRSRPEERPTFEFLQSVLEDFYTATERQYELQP
CSNK1G2, sequence (chain, as listed by the source): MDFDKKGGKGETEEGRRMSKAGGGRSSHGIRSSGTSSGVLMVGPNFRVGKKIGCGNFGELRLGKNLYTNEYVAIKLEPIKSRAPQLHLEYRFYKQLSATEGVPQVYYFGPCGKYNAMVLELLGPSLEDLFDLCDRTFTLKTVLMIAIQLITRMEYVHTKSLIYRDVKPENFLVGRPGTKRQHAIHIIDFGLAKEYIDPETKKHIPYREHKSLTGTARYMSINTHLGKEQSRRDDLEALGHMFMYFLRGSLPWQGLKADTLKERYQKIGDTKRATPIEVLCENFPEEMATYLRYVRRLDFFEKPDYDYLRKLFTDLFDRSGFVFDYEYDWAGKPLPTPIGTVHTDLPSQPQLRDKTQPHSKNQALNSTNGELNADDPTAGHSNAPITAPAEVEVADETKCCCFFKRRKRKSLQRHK
FYN, sequence (chain, as listed by the source): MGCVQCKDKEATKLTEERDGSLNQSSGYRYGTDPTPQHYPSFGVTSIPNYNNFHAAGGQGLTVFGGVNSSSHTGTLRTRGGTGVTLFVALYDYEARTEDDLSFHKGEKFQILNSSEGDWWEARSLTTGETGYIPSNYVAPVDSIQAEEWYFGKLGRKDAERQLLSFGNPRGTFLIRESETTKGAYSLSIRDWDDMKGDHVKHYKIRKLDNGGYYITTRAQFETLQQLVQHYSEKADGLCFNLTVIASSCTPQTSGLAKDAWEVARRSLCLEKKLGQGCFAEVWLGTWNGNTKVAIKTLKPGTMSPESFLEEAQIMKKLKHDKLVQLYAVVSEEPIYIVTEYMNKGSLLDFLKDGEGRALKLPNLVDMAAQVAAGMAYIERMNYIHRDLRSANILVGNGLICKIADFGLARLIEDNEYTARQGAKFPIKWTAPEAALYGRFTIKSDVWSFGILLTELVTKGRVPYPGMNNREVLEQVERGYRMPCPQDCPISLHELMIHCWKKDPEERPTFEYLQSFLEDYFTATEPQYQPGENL
PIM1, sequence (chain, as listed by the source): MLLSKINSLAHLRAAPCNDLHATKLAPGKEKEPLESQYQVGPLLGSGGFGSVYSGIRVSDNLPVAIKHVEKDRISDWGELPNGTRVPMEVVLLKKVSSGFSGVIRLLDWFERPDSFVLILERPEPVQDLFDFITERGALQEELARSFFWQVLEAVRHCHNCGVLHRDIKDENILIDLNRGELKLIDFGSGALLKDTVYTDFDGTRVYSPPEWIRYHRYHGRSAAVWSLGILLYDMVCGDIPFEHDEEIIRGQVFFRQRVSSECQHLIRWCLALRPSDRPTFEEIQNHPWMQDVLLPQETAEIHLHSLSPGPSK
NEK6, sequence (chain, as listed by the source): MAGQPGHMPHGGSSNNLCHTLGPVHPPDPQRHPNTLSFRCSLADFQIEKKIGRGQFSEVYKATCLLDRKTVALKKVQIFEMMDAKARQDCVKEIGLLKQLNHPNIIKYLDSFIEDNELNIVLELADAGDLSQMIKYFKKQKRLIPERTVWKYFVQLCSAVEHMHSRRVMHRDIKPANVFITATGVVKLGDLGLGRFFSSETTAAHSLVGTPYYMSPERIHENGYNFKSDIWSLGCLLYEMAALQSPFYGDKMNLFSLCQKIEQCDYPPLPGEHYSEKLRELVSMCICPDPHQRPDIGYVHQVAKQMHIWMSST

Substance	MBP Kinase Activity
EGFR	Negative
STK24(MST3)	Weak
STK25(YSK1)	Strong
NEK7	Negative
FGR	Weak
EPHA7	Weak
CLK1	Strong
NTRK2	Strong
SGKL(SGK3)	Weak
CSNK1G3	Weak
PRKCD	Strong
PHKG1	Negative
MST4	Negative
BLK	Weak
CSNK1G1(CK1gamma1)	Negative
CDK1/cyclin B	Strong
CLK3	Strong
AKT1	Strong

Substance	MBP Kinase Activity
PRKCB1	Strong
FYN	Strong
PIM2	Weak
NTRK3	Strong
CSNK1G2	Negative
PRKCG	Strong
PIM1	Strong
YES1	Weak
ADRBK2(GRK3)	Negative
CLK4	Negative
WEE1	Negative
MLCK	Negative
NTRK1	Strong
PKN1(PRK1)	Strong
SGK	Strong
NEK6	Negative
MAP4K5(KHS1)	Negative
